Assay: yeast display, Sf9 membrane polyspecificity reagent, FACS + sequencing; frameworks hold sequencing errors
Summary of the method: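 Sorting gates, low and high (top ~1%), were placed on anti-HA fluorescence to track expression and on streptavidin fluorescence to track reagent binding. A clone's polyreactivity label is taken from the gate it came out of. The reagent was 10% biotinylated, detergent-solubilized Sf9 membrane, applied for 1 hour at 4 °C to galactose-induced yeast display cells.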

Row | Sequence | polyreactivity (PSR sort gate)
1 | QVQLVESGGGLVQAGGSLRLSCAASGSTFDYYPMGWYRQAPGKERELVAGIDSAGSTNYADSVKGRFTISRDNAKNTVYLQMNSLKTGRYRGLYCNVGKTITTYAFPTFDYWGQGTQVTVSS | low polyreactivity
2 | QVQLVESGGGLVQAGGSLRLSCAASGFIFGYYAMGWYRQAPGKERELVAAITTSAASTYYADSVKGRFTISRDNAKNTVYLQMNSLKPEDTAVYYCNAVLYKVSISEYDYWGQGTQVTVSS | high polyreactivity
3 | QVQLVESGGGLVQAGGSLRLSCAASGSIFRNYAMGRSRQAPGKERELVAAITSGVRTNYADSVKGRFTISRDNAKNTVYLQMNSLKPEDTAVYYCNKGYNAVWRYRGDYWGQGTHVTVSS | high polyreactivity
4 | QVQLVESRGGLVLAGGSLRLSCAASGSIFPSYAMGWYRQAPGKERELVASISYRGGSTYYADSVKGRFTISRDNAKNTVYLQMNSLKPEDTAVYYCAATKERYYGWSRLTGYYRGNYWGQGTQVTVSS | high polyreactivity
5 | QVQLVESGGGLVQAGGSLRLSCAASGSIFSYYAMGWYRQAPAKERELVAAISQNACSTYYADSVKGRFTISRDNAKNTVYLQMNSLKPEDTAVYYCNAYSVYVRGEYWGQGTQVNVSS | high polyreactivity
6 | QVQLVESGGGLVQAGGSLRLSCAASGLIFYHNTMGWYRQAPGKEREFVASITQSGGSTYYADSVKGRFTISRDNAKNTVYLQMNSLKPEDTAVYYCAKRLRPGGYWYDYWGQGTQVTVSS | high polyreactivity
7 | QVQLVESGGGLVQAGGSLRLSCAASGIIFDRYAMGWYRQAPGKERELVAAISWSGGRTYYADSVKGRFTISRDNAKNTVYLQMNSLKPEDTAVYYCAAKPSVDLDYWGQGTQVTVSS | high polyreactivity
8 | QVQLVESGGGLVQAGGSLRLSCAASGSIFDNAMGWYRQAPGKERELVASIDQSGGSTYYADSVMGRFTISRDNAKNTVYLQMNSLKPEDTAVYYCAADSFTGYPYEMDYWGQGTQVTVSS | low polyreactivity
9 | QVQLVESGGGLVQAGGSLRLSCAASGSTFYRYTMGWYRQAPGKERELVAAITRSSGSTYYADSVKGRFTISRDNEKNTVYLQMNCLKPEDTAVYYCAAYVGGDRGFDYWGQGTQVTVSS | high polyreactivity
10 | QVQLVESGGGLVQAGGSLRLSCAASGTIFAANAMGWYRQAPGKERELVAAISSGDGTYYADSVKGRFTISRDNAKNTVYLQMNSLKPEDTAVYYCAARFTYYSGYYAGSYGYWGQGTQVTVSS | high polyreactivity
11 | QVHLVESGGGLVQAGGSLRLSCAASGRTFKYYAMGWYRQAPGKERELVAAISSRGGSTYYADSVKGRFTISRDNAKNTVYLQMNSLKPEDTAVYYCAKGTYLSTSTVANDYWGQGTQGTVSS | high polyreactivity
12 | QVQLVESGGGLVQAGGSLRLSCAASGLIFRRYAMGWYRQAPGKEREFVAAISWSGGSTYYADSVKGRFTISRDNAKNTVYLQMNSLKPEDTAVYYCAARYRFGGIRRYNYWGQGTQVTVSS | high polyreactivity
13 | QVQLVESGGGLVQAGGSLRLSCAASGSIFLWNAMGWYRQAPGKERELVAAISSSGGSTYYADSVKGRFTISRDNAKNTVYLQLNSLKPEDTAVYYCAAVSRSYYNSYNYWGQGTQVTVSS | high polyreactivity
14 | QVQLVESGGGLVQAGGSLRLICAASGIIFQAYTMGWSRQAPGKERELVAAISYSGGSTYYADSVKGRFTISSDNAKNSVYLEMKSLKPEDTAVYYCARRSRYLWRYDYWGQGTQVTVSA | high polyreactivity
15 | QVQLVESGGGLVQAGGSLRLSCAASGSTFQGYAMGWYRQAPGNERELVAAISRRGGSTYYADSVKGRFTISRDNAKNTVYFQKNSLKPEDTAVYYCNAVVRTIVLYYWGQGTQVTVSS | high polyreactivity
16 | QVQLVESGGGLVQAGGSLRLSCAASGRIFDGYAMGWYRQAPGKESELVAAISSRGGRTYYADSVKGRFTISRDNAKNTVYLQMNSLKPEDTAVYYCAGDDPYGEGDYWGQGTQVTVSS | low polyreactivity
17 | QVQLVESGGGLVQAGGSLRLSCAASGFTFNYYAMGWSRQAPGKERELVAAITWDGGTTYYADSVKGRFTISRDNAKNTVYLQMNSLKPEDSAVYYCAADYAWVSIYDNVPSAPGYDYWGQGTQVTVSS | low polyreactivity
18 | QLQHVESGGGLVQAGGSLRLSCDASGYTFAWYAMGWYIQAPGKESELVAAISVSGGSTYYADSVKGRFTISRDNAKNTVYIQMNSLKPEDTAVYYCAARRYLGYSASYDYWGQGTQVTVSS | high polyreactivity
19 | QVQLVESGGGLVQAGGSLRLSCAASGFTSDGYAMGWYRQAPGKERELVAAISWRGGSTYYADSVKGRFTISRDNAKNTVYLQMNSLKPEDTAVYYCAKDYYYGLEHYGYWGQGTQVTVSS | low polyreactivity
20 | QVQLVESGGGLVQAGGSLRLSCAATGSIFNYYAMGWYRQAPGKERELVATISRGGRTNYADSVKGRFTISRDNAKNTVYLQMNRLKAEETAVYYCAADRYYTYNVYYFSSFVYWGHGTQVTVSS | high polyreactivity
21 | QVQLVESGGGLVQAGGSLRLTCAASGRIFTGYAMGWYRQAPWKERELVAAISRGSSTYADSVKGRFTISRDNAKNTVYLQRNSLKPEDTAVYYCAAKWRAADWWPRTSQYDYWGQGTQVTVSS | high polyreactivity
22 | QVQLVESGGGLVQAGGSLRLSCAASGRIFSYYAMGWYRQAPGKERELVASITSGGSTYADSVKGRFTISRDNAKNTVYLQMNSLKPEDTAVYYCNARKRHYYGYYYWGQGTQVTVSS | high polyreactivity

Row | Sequence | polyreactivity (PSR sort gate)
23 | QVQLVESGGGLVQAGGSLRLSCAASGFIFTVYAMGWSRQAPGKERELVAAISRGGGSTSYADSVKGRFTISRDNAKNTVYLQMNSLKPEDTAVYYCNAKYKYSRGYDYWGQGTQVTVSS | high polyreactivity
24 | QVQLVESGGGLVQAGGSLRLSCAASGSTFSSYAMGWYRQAPGKERELVAAITSGTRTYYADSVKGRFTISRDNAKNTVYFQMNSLKPEDTAVYYCAAPTSSSGRYHRYYYWVQGTQVTVSS | high polyreactivity
25 | QVQLVESGGGLVQAGGSLRLSCAASGSTFNFNVMGWYRQAPGKERELVAAISSSGGNTYYADSVKGRFTISRDNAKNTVYLQMNSLKPEDTAVYYCAAEYEEWYSVFLYDYWGQGTQVTVSS | high polyreactivity
26 | QVQLVESGGVLVQAGGSLRLSCAASGSIFKRNVMGWYRQAPGKERELVAAITWSGASTYYADSVKGRFTISRDNAKNTVYLQMNSLKPEDTAVYYCAARGPSRRRDGSDYWGQGTQVTVSS | high polyreactivity
27 | QVQLVESGGGLVQEGGSLRLSCAASGRIFSYNTVMGWYIQAPGKERELVAAITFSSASTYYADSVKGRFTISRDNAKNTVYLQMNSLKPEDTAVYYCAAAIRSQSSKYYYWGQGTQVTVSS | low polyreactivity
28 | QVQLQESGGGLVQAGGNPRLSCAASGNSSWSAHMGWYRQTPGKERELVASNTAGTSTNYADSVKGRFTISRDNAKNTVYLQMNSLKPEDTAVSYCATLGYFSASRTDYDYWGQGTQVTVSS | low polyreactivity
29 | QVQLVESGGGLVQAGGSLRLSCAASGSIFSWNAMGWYRPAPGKEREFVAAISYGSTSTTYADSVKGRFTISRDNAKNTVYLQMNSLKPEDTAVYYCAAVPRRSGHQRWGATYYYWGQGTQVTVSS | high polyreactivity
30 | QVQLVESWGGLVQAGRSHRLSCAASGIIFDGNALGWYRQAPRKEREMVAAISSSGARTYYADSVKGRFTISRDNAKNSVYLLMNSLKPEDTAVYYCNAAYFNWYTHVWNDYWGQGTQVTVSS | high polyreactivity
31 | QVQLVESGGGLVQAGGSLRLSCAASGSTFGGNDMGWYRQAPGKERELVAAISSGTSTNYADSVKGRFTISRDNAKNTVYLQMNSLKPEDTAVYYCNAGFWYRRTYDYWGQGTQVTVSS | low polyreactivity
32 | QVQLVESGGGLVQAGGSLRLICAACGYTFEHYAMGWYRQAPGKERELVAAITRSGGSTSYADSVKGRFTISRDNAKNTVFLQMNRVKPEDTAVYYCAADSIRYFDYDYWGQGPQVTVSS | low polyreactivity
33 | QVQLVESGGGLVQAGGSLRLSCAASGSIFSPYAMGWYRQAPGKERELVAAITNSGGRTYYADSVKGRFTISRDNAKNTVYLQMNSLKPEDTAVYYCNADYGKHHTDYYYWGQGTQVTVSS | low polyreactivity
34 | QVQLVESGGGLVQAGGSLRLSCAASGSTFVKNTMGWYRQAPGKERELVAAIRSSGGSTYYADSVKGRFTISRDNAKNTVYLQMNSLKPEDTAVYYCAAGRGPEGTDDSWGQGTQVTVSS | high polyreactivity
35 | QVQLVESGGGLVQAGGSLRLSSAASGSIFARYAMGWYRPAPVKERELVAAISGRGGSTYYADSVKGRFTISRDNAKNTVYLQMNSLKPEDTAVYYCNAVGHTSIRRALDILDYWGQGPQVTVSS | high polyreactivity
36 | QVQLVESGGGLVQAGGSLRLSCAASGRTFLYNAMGWYRQAPGKERELVAAISWSGGSTYYADSVKGRFTISRDNAKNTVYLQMNSLKPEDTAVYYCAAYWVWPGRYWYDYWGQGTQVTVSS | high polyreactivity
37 | QVQLVESGGGLVQAGGSLRLSCAASGIIFTANVMGWYRHAPGKERELDAVISLSGGITFYADSVKGRFTISRDNAKNTVYLQMNSLKPEDTAVYYCAAEPWYSWKTEEDYWGQGTQVTVTS | low polyreactivity
38 | QVQLVESGGGLVQAGGSLRLSCAASGSTRYNAKGWYRQAPGNERELVASIRGNAGSTYYADSVKGRFTISRDNAKNTVYLQMNSLKPEDTAVYYCNARYWYRYGGYKPVGGYYWGQGTQVTVSS | high polyreactivity
39 | QVQLVESGGGLVQAGGSLRISCAASGNICSWYAMGWSRQAPGKERELVAAIRWSSGSTYYADSVKWRFTISRDNAKNTVYLQMNSMKPEDTAVYYCAAVIKGWGQGTQVTVSS | high polyreactivity
40 | QVQLVESGGGLVQAGGSLRLSCAASGSTFTGYVLGWYRQAPGKERELVAAITSSVDGTYYADSVKGRFTISRDIAKNTVYLQMNSLKPEDTAVYYCAADLWKGVYPSYDYWGQGTQVTVSS | low polyreactivity
41 | QVQLVESGGVLVQAGGSLRLSCAASGRTFPTYAMGCSRPAPGKERELVAAITSGGSTYYADTVKGRFTISRDKAKNTVYLQMTSLKPEDTAVYYCAAISTWGTKYDYWGQGTQVTVSS | high polyreactivity
42 | QVQLVESGGGLVQAGGSLRLICADSGLIFRWYAMGWYRQAPGKERELVAAISRRGGTTNYADSVKGRFTISRDNAKNTVYLQMNSLKPEDTAVYYCAVSGGFYWGQGTQVTVSS | high polyreactivity
43 | QVQLVESAGGLVQAGGSLRLSCAASGRTFFRNAMGWYRQAPGKERELVAGITASGGNTYYADSVKGRFTISRDNAKNTVYLQMNSLKPEDTAVYFCNAVYSLARITRAGYGYWGQGPQVTVSS | high polyreactivity

Source: the nanobody polyreactivity screen of Harvey et al. (2022)
